# Source: the supplement of paper PMC11316812
# ± gives the standard deviation of the averaged measurements.
# Tests used:
# MCF7 = assay: percentage of EdU-negative (G0-arrested) nuclei per well, 72 h; higher = more G0 arrest; settings: reference: sequence is the full UniProt precursor, the tested protein was the secreted form or ectodomain
# hTERT-HMEC = assay: as above; settings: reference: sequence is the full UniProt precursor, the tested protein was the secreted form or ectodomain
# [1] = protein concentration 0.0168571 µM
# [2] = protein concentration 0.168571 µM
# [3] = protein concentration 0.0225 µM
# [4] = protein concentration 0.021935 µM
# [5] = protein concentration 0.21935 µM
# [6] = protein concentration 0.00925 µM
# [7] = protein concentration 0.0925 µM
# [8] = protein concentration 0.007835 µM
# [9] = protein concentration 0.07835 µM
# [10] = protein concentration 0.01503 µM
# [11] = protein concentration 0.1503 µM
# [12] = protein concentration 0.0238325 µM
# [13] = protein concentration 0.238325 µM
# 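Further: secreted proteins added to cultured cells, EdU pulse at the end, nuclei found by Hoechst imaging, EdU status from nuclear versus surrounding ring intensity ratio, PBS as neutral control.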
sequence,measurement,setting,value
MLLVLVVLIPVLVSSGGPEGHYEMLGTCRMVCDPYPARGPGAGARTDGGDALSEQSGAPPPSTLVQGPQGKPGRTGKPGPPGPPGDPGPPGPVGPPGEKGEPGKPGPPGLPGAGGSGAISTATYTTVPRVAFYAGLKNPHEGYEVLKFDDVVTNLGNNYDAASGKFTCNIPGTYFFTYHVLMRGGDGTSMWADLCKNGQVRASAIAQDADQNYDYASNSVILHLDAGDEVFIKLDGGKAHGGNSNKYSTFSGFIIYSD,percentage of EdU-negative,MCF7; [1],27 ± 0.61%
same,percentage of EdU-negative,MCF7; [2],28.3 ± 0.59%
same,percentage of EdU-negative,hTERT-HMEC; [1],4.78 ± 0.083%
same,percentage of EdU-negative,hTERT-HMEC; [2],8.79 ± 0.3%
MLLWVILLVLAPVSGQFARTPRPIIFLQPPWTTVFQGERVTLTCKGFRFYSPQKTKWYHRYLGKEILRETPDNILEVQESGEYRCQAQGSPLSSPVHLDFSSASLILQAPLSVFEGDSVVLRCRAKAEVTLNNTIYKNDNVLAFLNKRTDFHIPHACLKDNGAYRCTGYKESCCPVSSNTVKIQVQEPFTRPVLRASSFQPISGNPVTLTCETQLSLERSDVPLRFRFFRDDQTLGLGWSLSPNFQITAMWSKDSGFYWCKAATMPYSVISDSPRSWIQVQIPASHPVLTLSPEKALNFEGTKVTLHCETQEDSLRTLYRFYHEGVPLRHKSVRCERGASISFSLTTENSGNYYCTADNGLGAKPSKAVSLSVTVPVSHPVLNLSSPEDLIFEGAKVTLHCEAQRGSLPILYQFHHEGAALERRSANSAGGVAISFSLTAEHSGNYYCTADNGFGPQRSKAVSLSVTVPVSHPVLTLSSAEALTFEGATVTLHCEVQRGSPQILYQFYHEDMPLWSSSTPSVGRVSFSFSLTEGHSGNYYCTADNGFGPQRSEVVSLFVTVPVSRPILTLRVPRAQAVVGDLLELHCEAPRGSPPILYWFYHEDVTLGSSSAPSGGEASFNLSLTAEHSGNYSCEANNGLVAQHSDTISLSVIVPVSRPILTFRAPRAQAVVGDLLELHCEALRGSSPILYWFYHEDVTLGKISAPSGGGASFNLSLTTEHSGIYSCEADNGLEAQRSEMVTLKVAVPVSRPVLTLRAPGTHAAVGDLLELHCEALRGSPLILYRFFHEDVTLGNRSSPSGGASLNLSLTAEHSGNYSCEADNGLGAQRSETVTLYITGLTANRSGPFATGVAGGLLSIAGLAAGALLLYCWLSRKAGRKPASDPARSPSDSDSQEPTYHNVPAWEELQPVYTNANPRGENVVYSEVRIIQEKKKHAVASDPRHLRNKGSPIIYSEVKVASTPVSGSLFLASSAPHR [Q96RD9],percentage of EdU-negative,MCF7; [3],26 ± 0.75%
same,percentage of EdU-negative,MCF7; protein concentration 0.225 µM,31.1 ± 3.2%
same,percentage of EdU-negative,hTERT-HMEC; [3],4.23 ± 0.27%
same,percentage of EdU-negative,hTERT-HMEC; protein concentration 0.225 µM,5.41 ± 0.94%
MLPAAMKGLGLALLAVLLCSAPAHGLWCQDCTLTTNSSHCTPKQCQPSDTVCASVRITDPSSSRKDHSVNKMCASSCDFVKRHFFSDYLMGFINSGILKVDVDCCEKDLCNGAAGAGHSPWALAGGLLLSLGPALLWAGP,percentage of EdU-negative,MCF7; [3],25.6 ± 3.3%
same,percentage of EdU-negative,MCF7; protein concentration 0.225 µM,26.7 ± 1.4%
same,percentage of EdU-negative,hTERT-HMEC; [3],4.57 ± 0.15%
same,percentage of EdU-negative,hTERT-HMEC; protein concentration 0.225 µM,5.48 ± 0.5%
MLPAATASLLGPLLTACALLPFAQGQTPNYTRPVFLCGGDVKGESGYVASEGFPNLYPPNKECIWTITVPEGQTVSLSFRVFDLELHPACRYDALEVFAGSGTSGQRLGRFCGTFRPAPLVAPGNQVTLRMTTDEGTGGRGFLLWYSGRATSGTEHQFCGGRLEKAQGTLTTPNWPESDYPPGISCSWHIIAPPDQVIALTFEKFDLEPDTYCRYDSVSVFNGAVSDDSRRLGKFCGDAVPGSISSEGNELLVQFVSDLSVTADGFSASYKTLPRGTAKEGQGPGPKRGTEPKVKLPPKSQPPEKTEESPSAPDAPTCPKQCRRTGTLQSNFCASSLVVTATVKSMVREPGEGLAVTVSLIGAYKTGGLDLPSPPTGASLKFYVPCKQCPPMKKGVSYLLMGQVEENRGPVLPPESFVVLHRPNQDQILTNLSKRKCPSQPVRAAASQD,percentage of EdU-negative,MCF7; [4],22.7 ± 2.1%
same,percentage of EdU-negative,MCF7; [5],26.5 ± 0.72%
same,percentage of EdU-negative,hTERT-HMEC; [4],4.8 ± 0.62%
same,percentage of EdU-negative,hTERT-HMEC; [5],6.48 ± 0.73%
MLPAPAAPRWPPLLLLLLLLLPLARGAPARPAAGGQASELVVPTRLPGSAGELALHLSAFGKGFVLRLAPDDSFLAPEFKIERLGGSGRATGGERGLRGCFFSGTVNGEPESLAAVSLCRGLSGSFLLDGEEFTIQPQGAGGSLAQPHRLQRWGPAGARPLPRGPEWEVETGEGQRQERGDHQEDSEEESQEEEAEGASEPPPPLGATSRTKRFVSEARFVETLLVADASMAAFYGADLQNHILTLMSVAARIYKHPSIKNSINLMVVKVLIVEDEKWGPEVSDNGGLTLRNFCNWQRRFNQPSDRHPEHYDTAILLTRQNFCGQEGLCDTLGVADIGTICDPNKSCSVIEDEGLQAAHTLAHELGHVLSMPHDDSKPCTRLFGPMGKHHVMAPLFVHLNQTLPWSPCSAMYLTELLDGGHGDCLLDAPAAALPLPTGLPGRMALYQLDQQCRQIFGPDFRHCPNTSAQDVCAQLWCHTDGAEPLCHTKNGSLPWADGTPCGPGHLCSEGSCLPEEEVERPKPVADGGWAPWGPWGECSRTCGGGVQFSHRECKDPEPQNGGRYCLGRRAKYQSCHTEECPPDGKSFREQQCEKYNAYNYTDMDGNLLQWVPKYAGVSPRDRCKLFCRARGRSEFKVFEAKVIDGTLCGPETLAICVRGQCVKAGCDHVVDSPRKLDKCGVCGGKGNSCRKVSGSLTPTNYGYNDIVTIPAGATNIDVKQRSHPGVQNDGNYLALKTADGQYLLNGNLAISAIEQDILVKGTILKYSGSIATLERLQSFRPLPEPLTVQLLTVPGEVFPPKVKYTFFVPNDVDFSMQSSKERATTNIIQPLLHAQWVLGDWSECSSTCGAGWQRRTVECRDPSGQASATCNKALKPEDAKPCESQLCPL [Q9UP79],percentage of EdU-negative,MCF7; [6],25.7 ± 2%
same,percentage of EdU-negative,MCF7; [7],26.53 ± 0.069%
same,percentage of EdU-negative,hTERT-HMEC; [6],5.77 ± 1.1%
same,percentage of EdU-negative,hTERT-HMEC; [7],6.06 ± 0.51%
MLPARCARLLTPHLLLVLVQLSPARGHRTTGPRFLISDRDPQCNLHCSRTQPKPICASDGRSYESMCEYQRAKCRDPTLGVVHRGRCKDAGQSKCRLERAQALEQAKKPQEAVFVPECGEDGSFTQVQCHTYTGYCWCVTPDGKPISGSSVQNKTPVCSGSVTDKPLSQGNSGRKDDGSKPTPTMETQPVFDGDEITAPTLWIKHLVIKDSKLNNTNIRNSEKVYSCDQERQSALEEAQQNPREGIVIPECAPGGLYKPVQCHQSTGYCWCVLVDTGRPLPGTSTRYVMPSCESDARAKTTEADDPFKDRELPGCPEGKKMEFITSLLDALTTDMVQAINSAAPTGGGRFSEPDPSHTLEERVVHWYFSQLDSNSSNDINKREMKPFKRYVKKKAKPKKCARRFTDYCDLNKDKVISLPELKGCLGVSKEGRLV [Q9H4F8],percentage of EdU-negative,MCF7; [8],26.5 ± 1.4%
same,percentage of EdU-negative,MCF7; [9],31.1 ± 0.71%
same,percentage of EdU-negative,hTERT-HMEC; [8],4.85 ± 0.098%
same,percentage of EdU-negative,hTERT-HMEC; [9],16.6 ± 0.68%
MLPCASCLPGSLLLWALLLLLLGSASPQDSEEPDSYTECTDGYEWDPDSQHCRDVNECLTIPEACKGEMKCINHYGGYLCLPRSAAVINDLHGEGPPPPVPPAQHPNPCPPGYEPDDQDSCVDVDECAQALHDCRPSQDCHNLPGSYQCTCPDGYRKIGPECVDIDECRYRYCQHRCVNLPGSFRCQCEPGFQLGPNNRSCVDVNECDMGAPCEQRCFNSYGTFLCRCHQGYELHRDGFSCSDIDECSYSSYLCQYRCINEPGRFSCHCPQGYQLLATRLCQDIDECESGAHQCSEAQTCVNFHGGYRCVDTNRCVEPYIQVSENRCLCPASNPLCREQPSSIVHRYMTITSERSVPADVFQIQATSVYPGAYNAFQIRAGNSQGDFYIRQINNVSAMLVLARPVTGPREYVLDLEMVTMNSLMSYRASSVLRLTVFVGAYTF,percentage of EdU-negative,MCF7; [10],23.73 ± 0.068%
same,percentage of EdU-negative,MCF7; [11],33 ± 1.2%
same,percentage of EdU-negative,hTERT-HMEC; [10],4.54 ± 0.11%
same,percentage of EdU-negative,hTERT-HMEC; [11],7.23 ± 0.73%
MLPCLVVLLAALLSLRLGSDAHGTELPSPPSVWFEAEFFHHILHWTPIPNQSESTCYEVALLRYGIESWNSISNCSQTLSYDLTAVTLDLYHSNGYRARVRAVDGSRHSNWTVTNTRFSVDEVTLTVGSVNLEIHNGFILGKIQLPRPKMAPANDTYESIFSHFREYEIAIRKVPGNFTFTHKKVKHENFSLLTSGEVGEFCVQVKPSVASRSNKGMWSKEECISLTRQYFTVTNVIIFFAFVLLLSGALAYCLALQLYVRRRKKLPSVLLFKKPSPFIFISQRPSPETQDTIHPLDEEAFLKVSPELKNLDLHGSTDSGFGSTKPSLQTEEPQFLLPDPHPQADRTLGNREPPVLGDSCSSGSSNSTDSGICLQEPSLSPSTGPTWEQQVGSNSRGQDDSGIDLVQNSEGRAGDTQGGSALGHHSPPEPEVPGEEDPAAVAFQGYLRQTRCAEEKATKTGCLEEESPLTDGLGPKFGRCLVDEAGLHPPALAKGYLKQDPLEMTLASSGAPTGQWNQPTEEWSLLALSSCSDLGISDWSFAHDLAPLGCVAAPGGLLGSFNSDLVTLPLISSLQSSE,percentage of EdU-negative,MCF7; [12],27.3 ± 1.9%
same,percentage of EdU-negative,MCF7; [13],25.3 ± 2.5%
same,percentage of EdU-negative,hTERT-HMEC; [12],5.02 ± 0.64%
same,percentage of EdU-negative,hTERT-HMEC; [13],5.96 ± 0.77%
MLPGAWLLWTSLLLLARPAQPCPMGCDCFVQEVFCSDEELATVPLDIPPYTKNIIFVETSFTTLETRAFGSNPNLTKVVFLNTQLCQFRPDAFGGLPRLEDLEVTGSSFLNLSTNIFSNLTSLGKLTLNFNMLEALPEGLFQHLAALESLHLQGNQLQALPRRLFQPLTHLKTLNLAQNLLAQLPEELFHPLTSLQTLKLSNNALSGLPQGVFGKLGSLQELFLDSNNISELPPQVFSQLFCLERLWLQRNAITHLPLSIFASLGNLTFLSLQWNMLRVLPAGLFAHTPCLVGLSLTHNQLETVAEGTFAHLSNLRSLMLSYNAITHLPAGIFRDLEELVKLYLGSNNLTALHPALFQNLSKLELLSLSKNQLTTLPEGIFDTNYNLFNLALHGNPWQCDCHLAYLFNWLQQYTDRLLNIQTYCAGPAYLKGQVVPALNEKQLVCPVTRDHLGFQVTWPDESKAGGSWDLAVQERAARSQCTYSNPEGTVVLACDQAQCRWLNVQLSPQQGSLGLQYNASQEWDLRSSCGSLRLTVSIEARAAGP,percentage of EdU-negative,MCF7; protein concentration 0.016 µM,25.6 ± 2.9%
same,percentage of EdU-negative,MCF7; protein concentration 0.16 µM,31.1 ± 1.1%
same,percentage of EdU-negative,hTERT-HMEC; protein concentration 0.016 µM,4.47 ± 0.7%
same,percentage of EdU-negative,hTERT-HMEC; protein concentration 0.16 µM,9.62 ± 2.1%
MLPLLLLPLLWGGSLQEKPVYELQVQKSVTVQEGLCVLVPCSFSYPWRSWYSSPPLYVYWFRDGEIPYYAEVVATNNPDRRVKPETQGRFRLLGDVQKKNCSLSIGDARMEDTGSYFFRVERGRDVKYSYQQNKLNLEVTALIEKPDIHFLEPLESGRPTRLSCSLPGSCEAGPPLTFSWTGNALSPLDPETTRSSELTLTPRPEDHGTNLTCQMKRQGAQVTTERTVQLNVSYAPQTITIFRNGIALEILQNTSYLPVLEGQALRLLCDAPSNPPAHLSWFQGSPALNATPISNTGILELRRVRSAEEGGFTCRAQHPLGFLQIFLNLSVYSLPQLLGPSCSWEAEGLHCRCSFRARPAPSLCWRLEEKPLEGNSSQGSFKVNSSSAGPWANSSLILHGGLSSDLKVSCKAWNIYGSQSGSVLLLQGRSNLGTGVVPAALGGAGVMALLCICLCLIFFLIVKARRKQAAGRPEKMDDEDPIMGTITSGSRKKPWPDSPGDQASPPGDAPPLEEQKELHYASLSFSEMKSREPKDQEAPSTTEYSEIKTSK,percentage of EdU-negative,MCF7; [3],25 ± 0.77%
same,percentage of EdU-negative,MCF7; protein concentration 0.225 µM,29.26 ± 0.077%
same,percentage of EdU-negative,hTERT-HMEC; [3],5.12 ± 0.15%
same,percentage of EdU-negative,hTERT-HMEC; protein concentration 0.225 µM,5.64 ± 1%
